What was measured:
[1] = target: T1, mouse PD-1 (mouse, UniProt Q02242 25-167, limits assumed); assay: no binding assay described; said in the vitiligo mouse model example
T1 sequence (looked up): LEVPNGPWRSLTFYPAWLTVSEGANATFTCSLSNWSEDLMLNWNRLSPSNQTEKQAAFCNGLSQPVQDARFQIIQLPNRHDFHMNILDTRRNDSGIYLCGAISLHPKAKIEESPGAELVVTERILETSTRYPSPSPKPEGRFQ

[2] = target: T2, human DSG-3 (human, UniProt P32926 50-615, limits assumed); assay: BLI (Octet), test article captured on anti-human Fc biosensors, human DSG-3 as analyte, 1:1 global fit
T2 construct: Soluble analyte (Octet) and plate coat (ELISA); also called hDSG-3
T2 sequence (looked up): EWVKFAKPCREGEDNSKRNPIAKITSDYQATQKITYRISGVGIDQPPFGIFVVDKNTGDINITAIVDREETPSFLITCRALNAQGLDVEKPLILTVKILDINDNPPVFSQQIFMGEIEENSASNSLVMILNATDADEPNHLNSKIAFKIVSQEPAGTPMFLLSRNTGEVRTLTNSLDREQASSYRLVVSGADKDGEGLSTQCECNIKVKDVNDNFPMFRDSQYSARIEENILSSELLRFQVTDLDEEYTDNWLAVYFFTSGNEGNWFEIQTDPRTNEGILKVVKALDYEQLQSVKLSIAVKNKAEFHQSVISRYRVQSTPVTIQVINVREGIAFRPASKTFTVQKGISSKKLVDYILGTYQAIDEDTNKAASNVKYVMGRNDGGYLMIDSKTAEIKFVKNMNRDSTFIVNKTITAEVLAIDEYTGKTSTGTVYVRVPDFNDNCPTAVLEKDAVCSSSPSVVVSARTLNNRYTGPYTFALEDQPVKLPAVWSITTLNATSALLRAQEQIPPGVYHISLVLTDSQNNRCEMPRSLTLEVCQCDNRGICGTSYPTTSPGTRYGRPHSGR
Method: Anti-human Fc biosensors were equilibrated in assay buffer (PBS, pH 7.4 with 1% BSA, and 0.05% Tween-20) for 30 minutes before the experiment was set-up. Test articles were diluted to 5 ug/mL in assay buffer. A two-fold, seven-point dilution of human DSG-3 (starting at 300 nM as the highest concentration) was made. Test articles were captured using anti-human Fc biosensors for 180 s. Biosensors loaded with test articles were equilibrated in assay buffer for 120 s; association was performed for 180 seconds and dissociation was performed for 300 s. Kinetic parameters (kon and kdis) and dissociation constant (KD) were calculated from a 1:1 global fit model using the data analysis software of the Octet96 RED software version 10.

[3] = target: PD-1 on PD-1 reporter Jurkat cells (human, UniProt Q15116 25-288); assay: cell-based or functional assay
PD-1 on PD-1 reporter Jurkat cells, sequence (Q15116 25-288): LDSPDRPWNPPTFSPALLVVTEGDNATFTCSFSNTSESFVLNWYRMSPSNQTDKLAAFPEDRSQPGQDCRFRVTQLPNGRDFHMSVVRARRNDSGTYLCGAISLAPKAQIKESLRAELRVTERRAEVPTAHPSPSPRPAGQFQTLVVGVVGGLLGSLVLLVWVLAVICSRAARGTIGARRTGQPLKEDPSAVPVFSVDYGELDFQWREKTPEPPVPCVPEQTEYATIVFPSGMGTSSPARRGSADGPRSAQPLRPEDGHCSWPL

B1: PD1DSGAB9 (bispecific antibody)
heavy: EVQLLESGGGLVQPGGSLRLSCAASGFTFSNSDMSWVRQAPGKGLEWVSGITISGGSTYYADSVKGRFTISRDNSKNTLYLQMNSLRAEDTAVYYCARGRGGSGWLDYWGQGTLVTVSSASTKGPSVFPLAPSSKSTSGGTAALGCLVKDYFPEPVTVSWNSGALTSGVHTFPAVLQSSGLYSLSSVVTVPSSSLGTQTYICNVNHKPSNTKVDKKVEPKSCDKTHTCPPCPAPEAAGAPSVFLFPPKPKDTLMISRTPEVTCVVVDVSHEDPEVKFNWYVDGVEVHNAKTKPREEQYNSTYRVVSVLTVLHQDWLNGKEYKCKVSNKALPAPIEKTISKAKGQPREPQVYTLPPSREEMTKNQVSLTCLVKGFYPSDIAVEWESNGQPENNYKTTPPVLDSDGSFFLYSKLTVDKSRWQQGNVFSCSVMHEALHNHYTQKSLSLSPGGGGGSGGGGSGGGGSQSVLTQPPSVSGTPGQRVTISCSGSSSHIGSNYVYWYQQLPGTAPKILIYSNDQRPAGVPDRFSASKSGTSASLAISGLRSEDEADYYCAAWDDGQGGVFGGGTKLTVLGGGGSGGGGSGGGGSGGGGSQVQLQESGPGPVKPSGTLSLTCGVSGGSISSNHWWTWVRQPPGKGLEWIGEIYHNGSTFLNPSLKSRVTISVDKSNNQFSLKLTSVTAADTAVYYCARGWHRTGFRGYPSHWYFDLWGRGTLVSVSS
light: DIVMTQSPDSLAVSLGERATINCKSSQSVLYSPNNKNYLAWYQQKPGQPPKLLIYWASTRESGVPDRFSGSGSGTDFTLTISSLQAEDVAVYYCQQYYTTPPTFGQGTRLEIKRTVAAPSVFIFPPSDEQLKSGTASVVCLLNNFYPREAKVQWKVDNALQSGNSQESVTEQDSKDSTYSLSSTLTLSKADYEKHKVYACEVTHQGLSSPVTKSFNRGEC
notes: also called PD1DS91; copies: 2 + 2
- binding result [1]: no binding
- Kd [2]: 29 nM
- koff [2]: 0.000757 s⁻¹
- SHP-2 recruitment in PD-1 reporter Jurkat cells (test article on anti-human IgG coated plate), EC50 at 2 hours [3]: 21.2 nM
- SHP-2 recruitment in PD-1 reporter Jurkat cells (test article on anti-human IgG coated plate), EC50 at 24 hours [3]: 16.6 nM
